Assay results taken from patent US7090834B1, “Vascular endothelial cell growth factor variants and uses thereof” (Genentech, Inc., priority 1999, dated 2006).
Where a chain is given by its changes, count along the chain named. Names and notes keep the numbering of the source.

B1: LK-VRB-2s* (ligand, human, UniProt P15692-4 27-135, looked up)
chain: APMAEGGGQNHHEVVKFMDVYQRSYCHPIETLVDIFQEYPDEIEYIFKPSCVPLMRCGGCCNSEMRECVPTEESNITMQIMRIKPHQGQHIGEMSFLQHNKCECRPKKD
B2: LK-VRB-3s: VEGF (1–109) variant with F17I/M18E/Y21F/Q22K/Y25S (protein)
chain: B1 chain with F17I, M18E, Y21F, Q22K, Y25S, S63D, M65G, R66L
B3: LK-VRB-5s: VEGF (1–109) variant with D63S/L66R (protein)
chain: B1 chain with M65G
B4: LK-VRB-18s (ligand)
chain: B1 chain with M18E, Y21L, Y25S
B5: LK-VRB-19s (ligand, human, UniProt P15692-4 27-135, looked up)
chain: B1 chain with M18E, Q22R, Y25S
notes: one of the two is probably misprinted
B6: LK-VRB-4s: VEGF (1–109) variant with F17I/M18E/Y21F/Q22E/Y25I (protein)
chain: B1 chain with F17I, M18E, Y21F, Q22E, Y25I, S63D, M65G, R66L
B7: LK-VRB-6s: VEGF (1–109) variant with D63S/G65A/L66T (protein)
chain: B1 chain with M65A, R66T
B8: LK-VRB-17s (ligand)
chain: B1 chain with M18E, Y21L, Q22R
B9: LK-VRB-16s (ligand, human, UniProt P15692-4 27-135, looked up)
chain: B1 chain with Q22R, Y25S
B10: LK-VRB-22s (ligand, human, UniProt P15692-4 27-135, looked up)
chain: B1 chain with M18E, Y21L, Q22R, Y25S, S63D, R66L
B11: LK-VRB-20s (ligand, human, UniProt P15692-4 27-135, looked up)
chain: B1 chain with Y21L, Q22R, Y25S
B12: LK-VRB-23s (ligand, human, UniProt P15692-4 27-135, looked up)
chain: B1 chain with M18E, Y21L, Q22R, Y25S, S63D, M65G
B13: LK-VRB-24s (ligand, human, UniProt P15692-4 27-135, looked up)
chain: B1 chain with M18E, Y21L, Q22R, Y25S, R66L
B14: LK-VRB-26s (ligand, human, UniProt P15692-4 27-135, looked up)
chain: B1 chain with M18E, Y21L, Q22R, Y25S, S63D
B15: LK-VRB-13s (ligand, human, UniProt P15692-4 27-135, looked up)
chain: B1 chain with M18E, Y25S
B16: LK-VRB-12s (ligand, human, UniProt P15692-4 27-135, looked up)
chain: B1 chain with M18E, Q22R
B17: LK-VRB-14s (ligand, human, UniProt P15692-4 27-135, looked up)
chain: B1 chain with Y21L, Q22R
B18: LK-VRB-21s (ligand, human, UniProt P15692-4 27-135, looked up)
chain: B1 chain with M18E, Y21L, Q22R, Y25S, M65G, R66L
B19: LK-VRB-25s (ligand, human, UniProt P15692-4 27-135, looked up)
chain: B1 chain with M18E, Y21L, Q22R, Y25S, M65G
B20: LK-VRB-10s (ligand, human, UniProt P15692-4 27-135, looked up)
chain: B1 chain with Y25S
B21: LK-VRB-15s (ligand, human, UniProt P15692-4 27-135, looked up)
chain: B1 chain with Y21L, Y25S
B22: LK-VRB-11s (ligand, human, UniProt P15692-4 27-135, looked up)
chain: B1 chain with M18E, Y21L
B23: LK-VRB-2f (ligand, human, UniProt P15692-4 27-191, looked up)
chain: APMAEGGGQNHHEVVKFMDVYQRSYCHPIETLVDIFQEYPDEIEYIFKPSCVPLMRCGGCCNSEMRECVPTEESNITMQIMRIKPHQGQHIGEMSFLQHNKCECRPKKDRARQENPCGPCSERRKHLFVQDPQTCKCSCKNTDSRCKARQLELNERTCRCDKPRR

Assays:
[1] = molecular target: Flt-1 receptor; experiment: Flt-1 receptor binding ELISA (inhibition of biotinylated native VEGF binding to Flt-IgG); details: for Relative Binding Affinity, FLT-1 Receptor: ratio to native VEGF (8–109): second figure of the cell, fold less binding than native VEGF
Method: (§1) Receptor binding assays were performed in 96-well immunoplates (Maxisorp, Nunc-Immunoplate, Nalge Nunc International, Rochester, N.Y.). Each well was coated with 100 μl of a solution containing 2 μg/ml of rabbit F(ab′)2 to human IgG Fc (Jackson ImmunoResearch, West Grove, Pa.) in 50 mM carbonate buffer at pH 9.6 and incubated at 4° C. overnight. The supernatant was then discarded, the wells were washed three times in washing buffer (0.05% Tween 20 in PBS), and the plate was blocked (150 μl per well) with block buffer (0.5% BSA, 0.01% thimerosal in PBS) at room temperature for one hour. The supernatant was discarded, and the wells were washed.
The wells were filled with 100 μl of a solution containing Flt-IgG (a chimeric Flt-human Fc molecule) at 50 ng/ml in assay buffer (0.5% BSA, 0.05% Tween 20 in PBS). The wells were incubated at room temperature for 1 hour and then washed three times in wash buffer (0.05% Tween 20 in PBS).
Aliquots of the mixture (100 μl) were added to the precoated microtiter wells and the plate was incubated for 2 hours at room temperature. […] The wells were then incubated with 3, 3′, 5,5′-tetramethyl benzidine (0.2 g/liter, Kirkegaard & Perry Laboratories, Gaithersburg, Md.) for about 10 minutes at room temperature. Absorbance was read at 450 nm on a Vmax plate reader (Molecular Devices, Menlo Park, Calif.).
(§2) Titration curves were fit with a four-parameter nonlinear regression curve-fitting program (KaleidaGraph, Synergy Software, Reading, Pa.).

[2] = molecular target: KDR receptor on HUVEC cells (human, UniProt P35968 20-1356); experiment: cell-based or functional assay
[3] = molecular target: KDR receptor (Homo sapiens, UniProt P35968); experiment: KDR receptor binding ELISA (inhibition of biotinylated native VEGF (8–109) binding); details: second figure of the cell, variant midpoint concentration divided by that of native VEGF
Method: as §1, with “containing 8” for “containing 2”, “of a monoclonal antibody” for “of rabbit F(ab′)2”, “to KDR known as MAKD5 (Genentech, South San Francisco, Calif.)” for “to human IgG Fc (Jackson ImmunoResearch, West Grove, Pa.)”, “was” for “was then”
Aliquots of this mixture (100 μl) were added to the precoated microtiter wells and the plate was incubated for 1 hour at room temperature. […] The wells were then incubated with 3, 3′, 5,5′-tetramethyl benzidine (0.2 gram/liter; Kirkegaard & Perry Laboratories, Gaithersburg, Md.) for about 10 minutes at room temperature. Absorbance was read at 450 nm on a Vmax plate reader (Molecular Devices, Menlo Park, Calif.).
as §2

[4] = molecular target: T1, KDR (1-3) (UniProt P35968 20-327, limits assumed); experiment: competition ELISA vs biotinylated native VEGF (8-109) for KDR (1-3)
T1 construct: domain: domains 1 to 3; Genentech reagent; also called KDR (1-3) monomer; domains 1 to 3 of KDR
Method: as §1, with “containing 8” for “containing 2”, “of a monoclonal antibody” for “of rabbit F(ab′)2”, “to KDR known as MAKD5 (Genentech, South San Francisco, Calif.)” for “to human IgG Fc (Jackson ImmunoResearch, West Grove, Pa.)”, “was” for “was then”
Aliquots of this mixture (100 μl) were added to the precoated microtiter wells and the plate was incubated for 1 hour at room temperature. […] The wells were then incubated with 3, 3', 5,5'-tetramethyl benzidine (0.2 gram/liter; Kirkegaard & Perry Laboratories, Gaithersburg, Md.) for about 10 minutes at room temperature. Absorbance was read at 450 nm on a Vmax plate reader (Molecular Devices, Menlo Park, Calif.).
as §2

KDR receptor, sequence (P35968 20-327 limits assumed): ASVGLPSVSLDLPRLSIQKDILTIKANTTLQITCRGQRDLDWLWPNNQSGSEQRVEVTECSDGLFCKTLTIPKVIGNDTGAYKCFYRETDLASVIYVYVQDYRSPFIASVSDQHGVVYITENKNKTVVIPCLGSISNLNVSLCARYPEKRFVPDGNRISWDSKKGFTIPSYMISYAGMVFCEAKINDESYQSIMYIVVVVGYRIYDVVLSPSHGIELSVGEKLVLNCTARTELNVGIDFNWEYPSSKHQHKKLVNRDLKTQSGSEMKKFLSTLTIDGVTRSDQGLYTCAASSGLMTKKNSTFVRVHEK
T1 sequence (P35968 20-327 limits assumed): as above
Flt-1 receptor, sequence (P17948 27-327 limits assumed): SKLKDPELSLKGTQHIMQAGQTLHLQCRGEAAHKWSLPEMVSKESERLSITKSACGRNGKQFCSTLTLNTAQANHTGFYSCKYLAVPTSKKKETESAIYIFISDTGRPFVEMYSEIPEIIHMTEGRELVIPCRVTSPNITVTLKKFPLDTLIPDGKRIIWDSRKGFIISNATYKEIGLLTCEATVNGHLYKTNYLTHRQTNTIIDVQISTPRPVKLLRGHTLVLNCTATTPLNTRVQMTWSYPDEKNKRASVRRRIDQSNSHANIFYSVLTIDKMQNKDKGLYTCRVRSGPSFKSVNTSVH
KDR receptor on HUVEC cells, sequence (P35968 20-1356): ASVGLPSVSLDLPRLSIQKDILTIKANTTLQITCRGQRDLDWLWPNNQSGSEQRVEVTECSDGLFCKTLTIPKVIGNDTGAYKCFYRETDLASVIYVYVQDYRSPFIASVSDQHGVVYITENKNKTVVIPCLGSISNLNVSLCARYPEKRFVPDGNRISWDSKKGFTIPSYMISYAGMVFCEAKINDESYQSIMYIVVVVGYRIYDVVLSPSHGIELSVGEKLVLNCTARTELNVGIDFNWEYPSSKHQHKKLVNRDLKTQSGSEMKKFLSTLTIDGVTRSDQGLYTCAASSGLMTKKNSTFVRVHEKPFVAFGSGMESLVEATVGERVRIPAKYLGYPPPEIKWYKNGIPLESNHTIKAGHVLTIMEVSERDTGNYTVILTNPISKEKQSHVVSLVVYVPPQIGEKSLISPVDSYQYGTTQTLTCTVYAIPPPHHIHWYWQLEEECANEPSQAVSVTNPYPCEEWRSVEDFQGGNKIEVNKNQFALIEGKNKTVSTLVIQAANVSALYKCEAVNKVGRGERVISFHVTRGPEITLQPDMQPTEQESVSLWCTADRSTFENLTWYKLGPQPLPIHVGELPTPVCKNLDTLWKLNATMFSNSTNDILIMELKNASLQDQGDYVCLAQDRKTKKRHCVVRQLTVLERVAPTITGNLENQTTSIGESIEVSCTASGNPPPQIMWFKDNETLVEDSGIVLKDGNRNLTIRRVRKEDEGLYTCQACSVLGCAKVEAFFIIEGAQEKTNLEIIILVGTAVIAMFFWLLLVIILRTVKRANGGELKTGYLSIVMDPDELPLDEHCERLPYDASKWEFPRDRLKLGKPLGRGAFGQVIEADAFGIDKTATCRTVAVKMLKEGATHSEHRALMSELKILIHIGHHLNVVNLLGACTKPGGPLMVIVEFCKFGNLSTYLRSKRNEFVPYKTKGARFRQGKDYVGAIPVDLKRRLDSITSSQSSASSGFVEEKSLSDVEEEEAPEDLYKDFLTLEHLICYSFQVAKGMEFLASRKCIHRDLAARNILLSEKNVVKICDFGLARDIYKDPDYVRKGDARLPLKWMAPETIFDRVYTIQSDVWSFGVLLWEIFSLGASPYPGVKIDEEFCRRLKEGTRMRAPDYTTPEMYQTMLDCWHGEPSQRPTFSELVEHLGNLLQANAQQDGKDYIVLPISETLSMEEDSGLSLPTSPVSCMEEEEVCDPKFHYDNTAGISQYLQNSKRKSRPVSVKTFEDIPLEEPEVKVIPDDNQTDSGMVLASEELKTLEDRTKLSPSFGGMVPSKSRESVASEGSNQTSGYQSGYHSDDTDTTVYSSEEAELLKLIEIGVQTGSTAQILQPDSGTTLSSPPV

Molecule	IC50 ([1]; first figure of the cell, Flt-IgG, read-out: Relative Binding Affinity, FLT-1 Receptor: concentration at midpoint absorbance) [µM]	Endothelial Cell Proliferation Activity (HUVEC, 3H-thymidine) [2]	Relative Binding Affinity, KDR Receptor: ratio to native VEGF (8–109) [3]	IC50 [4] [µM]	relative binding affinity (ratio to native VEGF (8-109)) [4] [ratio]	Relative Binding Affinity, FLT-1 Receptor: ratio to native VEGF (8–109) [1]
LK-VRB-2s*: VEGF (1–109) variant with D63S/G65M/L66R; KDR selective variant	> 0.4	–	–	–	–	–
B1	–	0.1 ratio to native VEGF (8-109)	–	–	–	–
B2	–	–	1 nM/1	–	–	–
B3	–	–	1 nM/1	–	–	–
B4	–	–	–	0.13	130	–
B5	–	–	7 nM/7	–	7	/>35000
B6	–	–	1 nM/1	–	–	–
B7	–	–	0.5 nM/0.5	–	–	–
B8	–	–	–	–	130	/>1900
B9	–	–	0.6 nM/0.6	–	0.6	/>1400
B10	–	–	4 nM/4	–	4	/>30
B11	–	–	2 nM/2	–	2	/>10000
B12	–	–	11 nM/11	–	11	/>8500
B13	–	–	10 nM/10	–	10	/>18000
B14	–	–	23 nM/23	–	23	/>25000
B15	–	–	14 nM/14	–	14	/>14000
B16	–	–	0.4 nM/0.4	–	0.4	/>5600
B17	–	–	0.5 nM/0.5	–	0.5	/>2900
B18	–	–	3 nM/3	–	3	/>5600
B19	–	–	4 nM/4	–	4	/>12000
B20	–	–	0.5 nM/0.5	–	0.5	/>2400
B21	–	–	2 nM/2	–	2	/>21000
B22	–	–	2 nM/2	–	2	/>14000
B23	–	0.1 ratio to native VEGF (8-109)	–	–	–	–
